From PMC7272653, “Human aminolevulinate synthase structure reveals a eukaryotic-specific autoinhibitory loop regulating substrate binding and product release” (Nature Communications, 2020)

Biological target: the molecule itself
Assay: SEC + other: SAXS; in solution; SAXS coupled to a Shodex KW403-4F size exclusion column; 300 mM NaCl, 25 mM Hepes 7.5, 1 mM TCEP, 2% glycerol, 1% sucrose, 20 °C

B1: hsALAS2_(ΔN142ΔC545) (catalytic domain alone, aa 143–545) (domain or fragment, human, UniProt P22557 143-545, looked up)
chain: FSYDQFFRDKIMEKKQDHTYRVFKTVNRWADAYPFAQHFSEASVASKDVSVWCSNDYLGMSRHPQVLQATQETLQRHGAGAGGTRNISGTSKFHVELEQELAELHQKDSALLFSSCFVANDSTLFTLAKILPGCEIYSDAGNHASMIQGIRNSGAAKFVFRHNDPDHLKKLLEKSNPKIPKIVAFETVHSMDGAICPLEELCDVSHQYGALTFVDEVHAVGLYGSRGAGIGERDGIMHKIDIISGTLGKAFGCVGGYIASTRDLVDMVRSYAAGFIFTTSLPPMVLSGALESVRLLKGEEGQALRRAHQRNVKHMRQLLMDRGLPVIPCPSHIIPIRVGNAALNSKLCDLLLSKHGIYVQAINYPTVPRGEELLRLAPSPHHSPQMMEDFVEKLLLAWTAVGL
notes: human ALAS2, catalytic domain alone, aa 143–545 (Ct-extension omitted); also called hsALAS2_(ΔN142ΔC545) WT; source: constructs cloned into pFB-LIC-Bse (Sf9) and pNIC28-Bsa4; purified (Ni-NTA, Superdex 200)
- stoichiometry N: 2

B2: hsALAS2_(ΔN142) (human erythroid-specific 5′-aminolevulinate synthase, aa 143–587) (enzyme, UniProt P22557 143-587, looked up)
chain: FSYDQFFRDKIMEKKQDHTYRVFKTVNRWADAYPFAQHFSEASVASKDVSVWCSNDYLGMSRHPQVLQATQETLQRHGAGAGGTRNISGTSKFHVELEQELAELHQKDSALLFSSCFVANDSTLFTLAKILPGCEIYSDAGNHASMIQGIRNSGAAKFVFRHNDPDHLKKLLEKSNPKIPKIVAFETVHSMDGAICPLEELCDVSHQYGALTFVDEVHAVGLYGSRGAGIGERDGIMHKIDIISGTLGKAFGCVGGYIASTRDLVDMVRSYAAGFIFTTSLPPMVLSGALESVRLLKGEEGQALRRAHQRNVKHMRQLLMDRGLPVIPCPSHIIPIRVGNAALNSKLCDLLLSKHGIYVQAINYPTVPRGEELLRLAPSPHHSPQMMEDFVEKLLLAWTAVGLPLQDVSVAACNFCRRPVHFELMSEWERSYFGNMGPQYVTTYA
notes: human ALAS2 (5′-aminolevulinate synthase, erythroid-specific), aa 143–587: catalytic core and Ct-extension; Before crystallisation it was made non-covalent with hydroxylamine; The His6 tag is TEV-cleavable and was removed 'where applicable'; also called hsALAS2_(ΔN142) WT; source: baculovirus-infected Sf9 insect cells, purified (Ni-NTA, Superdex 200)
- stoichiometry N: 2
